In test [1] the target is HLA-B*18:01. Nature of the test: IEDB peptide-MHC binding, purified MHC/direct/fluorescence; filed as Kd, often an IC50 or EC50 that approximates it; ≥ and ≤ were set here for values at or beyond the usual limits of such assays.
Test [2] addresses HLA-C*14:02. The test is described as above. Particulars: source organism: Burkholderia mallei SAVP1.
Test [3] has as its target HLA-C*15:02. The description is as above.
Test [4] concerns the target HLA-A*01:01. Described as above.
For test [5], the target named is HLA-A*02:01. The description is as above.
Test [6] deals with HLA-A*03:01. The test is described as above.
The target of test [7] is HLA-A*11:01. The test is described as above.
The target of test [8] is HLA-A*26:01. The test is described as above.
Test [9] concerns the target HLA-A*26:02. The description is as above.
The target in test [10] is HLA-A*31:01. The description is as above.
Test [11] has as its target HLA-A*68:02. The test is described as above. As to conditions: source organism: Entamoeba histolytica.
Test [12] addresses HLA-B*07:02. Described as above.
In test [13] the target is HLA-B*08:01. The description is as above.
The target in test [14] is HLA-B*08:02. The test is described as above.
Test [15] deals with HLA-B*15:01. Described as above.
For test [16], the target named is HLA-B*15:17. The test is described as above. Particulars: source organism: Entamoeba histolytica.
The target in test [17] is HLA-B*27:05. Described as above.
For test [18], the target named is HLA-B*40:01. Described as above.
Test [19] has as its target HLA-B*46:01. The description is as above.
Test [20] concerns the target HLA-B*48:01. Described as above.
Test [21] concerns the target HLA-B*57:01. The test is described as above.
Test [22] addresses HLA-B*58:01. Described as above.
For test [23], the target named is HLA-A*69:01. The description is as above.
The target in test [24] is HLA-B*35:01. The description is as above.
The target of test [25] is HLA-B*44:02. The test is described as above.
In test [26] the target is HLA-A*11:01. Nature of the test: IEDB peptide-MHC binding, purified MHC/competitive/fluorescence; filed as Kd, often an IC50 or EC50 that approximates it; ≥ and ≤ were set here for values at or beyond the usual limits of such assays.
The target of test [27] is HLA-A*30:01. Nature of the test: IEDB peptide-MHC binding, purified MHC/direct/fluorescence; filed as Kd, often an IC50 or EC50 that approximates it; ≥ and ≤ were set here for values at or beyond the usual limits of such assays.
Test [28] addresses HLA-A*23:01. Nature of the test: IEDB peptide-MHC binding, purified MHC/competitive/fluorescence; filed as Kd, often an IC50 or EC50 that approximates it; ≥ and ≤ were set here for values at or beyond the usual limits of such assays. As to conditions: source organism: Vibrio cholerae 2740-80.
The target of test [29] is HLA-B*46:01. The description is as above. Particulars: source organism: Yellow fever virus.
For test [30], the target named is HLA-C*03:03. Nature of the test: IEDB peptide-MHC binding, purified MHC/direct/fluorescence; filed as Kd, often an IC50 or EC50 that approximates it; ≥ and ≤ were set here for values at or beyond the usual limits of such assays. As to conditions: source organism: Chelativorans sp. BNC1.
The target in test [31] is HLA-A*24:03. Described as above.
The mark [32] stands for this setting: source organism: Entamoeba histolytica.
[33] abbreviates: source organism: Vibrio cholerae.
The mark [34] stands for this setting: source organism: Orthohantavirus hantanense.
Setting [35] is: source organism: Yellow fever virus.
Where [36] appears, read: source organism: Yellow fever virus strain Ghana/Asibi/1927.
The mark [37] stands for this setting: source organism: Salmonella enterica.
[38] abbreviates: source organism: Pseudomonas putida.
The mark [39] stands for this setting: source organism: Vibrio vulnificus.
Where [40] appears, read: source organism: Aggregatibacter actinomycetemcomitans.

For 17 sequences, Kd results are on record in the Immune Epitope Database (IEDB).

As to WWLEYTASF, the results for the Kd in test [1] (source organism: Burkholderia mallei ATCC 23344), in test [2] and in test [3] (source organism: Burkholderia mallei SAVP1) were 0.068 µM, 0.077 µM and no less than 20 µM, respectively.
Consider DFGYATMAK, for which the Kd in [4] (setting [32]) was no less than 20 µM; in test [5] (setting [32]) it was no less than 20 µM; in test [6] (setting [32]) it was 1.6 µM; in [7] (setting [32]) it was 0.836 µM; in [8] (setting [32]) it was no less than 20 µM; in test [9] (setting [32]) it was no less than 20 µM. The Kd in [10] (setting [32]), in test [11], in [12] (setting [32]), in test [13] (setting [32]), in [14] (setting [32]) and in [15] (setting [32]) was no less than 20 µM each time. The Kd in test [16], in [1] (setting [32]), in test [17] (setting [32]), in [18] (setting [32]), in test [19] (setting [32]) and in test [20] (setting [32]) was no less than 20 µM throughout. Moreover, the Kd in test [21] (setting [32]) and in test [22] (setting [32]) was no less than 20 µM each time.
For the sequence WAGIWGGKL, the Kd in test [4] (setting [33]), in test [5] (setting [33]), in test [6] (setting [33]), in [7] (setting [33]), in test [8] (setting [33]) and in test [10] (setting [33]) was no less than 20 µM throughout. Besides, the Kd in test [23] (setting [33]) is 0.242 µM; in test [12] (setting [33]) it was 13 µM; in test [13] (setting [33]) it was no less than 20 µM; in [15] (setting [33]), no less than 20 µM; in test [17] (setting [33]) it was no less than 20 µM; in test [24] (setting [33]), 0.342 µM. The Kd in test [18] (setting [33]), in [25] (setting [33]) and in [22] (setting [33]) was no less than 20 µM throughout.
RTLASGLIY gave a Kd in test [26] (source organism: Yersinia pestis Nepal516) of 0.0673 µM.
Turning to RLNLKTSFH, the Kd in test [6] (setting [34]) amounted to 0.407 µM; in test [7] (setting [34]) it was 1.35 µM; in test [27] (source organism: Sapporo rat virus) it was 0.1 µM.
The sequence FVQGVIWNI yielded an equilibrium dissociation constant (Kd) in [28] of 0.0365 µM.
On to EAMDTISVF, for which the Kd in test [9] (setting [35]) is no more than 0.001 µM; in test [29], 0.53 µM.
TLYCVHQR gave a Kd in test [26] (source organism: Human immunodeficiency virus 1) of 0.111 µM.
In test [27] (source organism: West Nile virus SPU116/89), EYVGKTVWF returned a Kd of no less than 20 µM.
Take AIHPFALLL: the Kd in [4] (setting [36]), in test [10] (setting [36]), in [12] (setting [36]), in [14] (setting [35]), in [15] (setting [36]) and in test [17] (setting [36]) was no less than 20 µM each time. Also, the Kd in test [25] (setting [36]) was no less than 20 µM; in [19] (setting [36]) it was no less than 20 µM; in test [20] (setting [36]), no less than 20 µM; in test [21] (setting [36]), no less than 20 µM; in test [3] (setting [35]), 0.099 µM.
ETLETLLLL showed a Kd in [9] (source organism: Dengue virus 2 Thailand/16681/84) of 0.055 µM.
Regarding SGIDTNAYY, the Kd in test [8] (source organism: West Nile virus) and in [9] (source organism: West Nile virus strain PTRoxo) was no less than 20 µM throughout.
As to WALDVPMYF, the dissociation constant Kd was 0.034 µM in test [21] (source organism: Brucella suis 1330), 0.0036 µM in test [22] (source organism: Aurantimonas manganoxydans), no more than 0.001 µM in test [30] and 0.179 µM in [3] (source organism: Chelativorans sp. BNC1).
With AHSKAETEA, the Kd in [4] (setting [37]), in test [5] (setting [37]), in test [6] (setting [37]), in test [7] (setting [37]), in [8] (setting [37]) and in test [10] (setting [37]) was no less than 20 µM in each case. Besides, the dissociation constant Kd in test [23] (setting [37]), in test [12] (setting [37]), in [13] (setting [37]), in [15] (setting [37]), in test [17] (setting [37]) and in test [24] (source organism: Salmonella enterica subsp. enterica serovar Typhimurium) was no less than 20 µM each time. Besides, the Kd in test [18] (setting [37]), in test [25] (setting [37]) and in [22] (setting [37]) was no less than 20 µM each time.
Take HTAEIQQFF: the Kd in test [4] (setting [38]) is 0.67 µM; in test [8] (setting [38]), 0.00541 µM; in [10] (setting [38]) it was 1.15 µM; in test [23] (setting [38]), 0.0328 µM; in test [15] (setting [38]), 0.0906 µM; in [24] (setting [38]), 0.171 µM.
Turning to QSPQPVRVK, the Kd in test [4] (setting [39]) is no less than 20 µM; in test [5] (setting [39]), no less than 20 µM; in test [6] (setting [39]), 19.3 µM; in [7] (setting [39]) it was 12.2 µM; in [31] (setting [39]) it was no less than 20 µM; in [8] (setting [39]), no less than 20 µM. Besides, the Kd in [27] (setting [39]) is 3.75 µM; in test [23] (setting [39]) it was no less than 20 µM; in test [12] (setting [39]), no less than 20 µM; in test [13] (setting [39]), no less than 20 µM; in [15] (setting [39]) it was no less than 20 µM; in test [17] (setting [39]), no less than 20 µM. The Kd in [18] (setting [39]) and in test [22] (setting [39]) was no less than 20 µM each time.
As to TTRAWFDKK, the Kd in [4] (setting [40]) was no less than 20 µM; in test [5] (setting [40]), no less than 20 µM; in test [6] (setting [40]), 2.99 µM; in test [7] (setting [40]), 0.127 µM; in test [31] (setting [40]), no less than 20 µM; in [8] (setting [40]), no less than 20 µM. In addition, the Kd is 0.00023 µM in test [27] (setting [40]); 0.0607 µM in [10] (setting [40]); no less than 20 µM in test [23] (setting [40]); no less than 20 µM in test [12] (setting [40]); no less than 20 µM in [13] (setting [40]); no less than 20 µM in [15] (setting [40]). The Kd in test [17] (setting [40]), in [18] (setting [40]) and in [22] (setting [40]) was no less than 20 µM each time.

What is called Kd is a measure of binding affinity in units of concentration. Low readings indicate higher affinity, high ones lower affinity.
